Each block holds one binder with its values, some of them ahead of it.
Columns and labels:
[1] = biological target: his-labeled human IL-13 (immunogen A) (human) (UniProt P35225); experiment: SPR (Biacore)
[2] = biological target: his-labeled human IL-13 (immunogen A) (human) (UniProt P35225); experiment: FACS blocking, biotin-IL-13 on IL-13Ra2 HEK293 cells; antibody at 0.05 nM
[3] = biological target: his-labeled human IL-13 (immunogen A) (human) (UniProt P35225); experiment: SPR (Biacore), antibody captured by anti-human Fc, immunogen A as analyte
[4] = biological target: his-labeled human IL-13 (immunogen A) (human) (UniProt P35225); experiment: FACS blocking, biotin-IL-13 on IL-13Ra2 HEK293 cells; antibody at 0.002 nM
[5] = biological target: his-labeled human IL-13 (immunogen A) (human) (UniProt P35225); experiment: FACS blocking, biotin-IL-13 on IL-13Ra2 HEK293 cells; antibody at 33.33 nM
[6] = biological target: his-labeled human IL-13 (immunogen A) (human) (UniProt P35225); experiment: FACS blocking, biotin-IL-13 on IL-13Ra1/IL-4Ra HEK293 cells; antibody at 0.05 nM
[7] = biological target: his-labeled human IL-13 (immunogen A) (human) (UniProt P35225); experiment: FACS blocking, biotin-IL-13 on IL-13Ra1/IL-4Ra HEK293 cells; antibody at 6.67 nM
[8] = biological target: his-labeled human IL-13 (immunogen A) (human) (UniProt P35225); experiment: FACS blocking, biotin-IL-13 on IL-13Ra1/IL-4Ra HEK293 cells; antibody at 0.27 nM
[9] = biological target: his-labeled human IL-13 (immunogen A) (human) (UniProt P35225); experiment: FACS blocking, biotin-IL-13 on IL-13Ra2 HEK293 cells; antibody at 6.67 nM
[10] = biological target: his-labeled human IL-13 (immunogen A) (human) (UniProt P35225); experiment: FACS blocking, biotin-IL-13 on IL-13Ra1/IL-4Ra HEK293 cells; antibody at 33.33 nM
[11] = biological target: his-labeled human IL-13 (immunogen A) (human) (UniProt P35225); experiment: cell-based or functional assay
[12] = biological target: his-labeled human IL-13 (immunogen A) (human) (UniProt P35225); experiment: FACS blocking, biotin-IL-13 on IL-13Ra1/IL-4Ra HEK293 cells; antibody at 1.33 nM
[13] = biological target: his-labeled human IL-13 (immunogen A) (human) (UniProt P35225); experiment: FACS blocking, biotin-IL-13 on IL-13Ra1/IL-4Ra HEK293 cells; antibody at 166.67 nM
[14] = biological target: his-labeled human IL-13 (immunogen A) (human) (UniProt P35225); experiment: FACS blocking assay: antibody titrated with biotin-labeled immunogen A (30 ng/mL); blocked partner IL-13Ra1/IL-4Ra on HEK293 clone 4C1; Alexa 488 streptavidin
[15] = biological target: his-labeled human IL-13 (immunogen A) (human) (UniProt P35225); experiment: FACS blocking, biotin-IL-13 on IL-13Ra2 HEK293 cells; antibody at 0.27 nM
[16] = biological target: his-labeled human IL-13 (immunogen A) (human) (UniProt P35225); experiment: FACS blocking, biotin-IL-13 on IL-13Ra2 HEK293 cells; antibody at 0.01 nM
[17] = biological target: his-labeled human IL-13 (immunogen A) (human) (UniProt P35225); experiment: FACS blocking, biotin-IL-13 on IL-13Ra1/IL-4Ra HEK293 cells; antibody at 0.01 nM
[18] = biological target: his-labeled human IL-13 (immunogen A) (human) (UniProt P35225); experiment: FACS blocking, biotin-IL-13 on IL-13Ra2 HEK293 cells; antibody at 1.33 nM
[19] = biological target: his-labeled human IL-13 (immunogen A) (human) (UniProt P35225); experiment: FACS blocking, biotin-IL-13 on IL-13Ra2 HEK293 cells; antibody at 166.67 nM
[20] = biological target: his-labeled human IL-13 (immunogen A) (human) (UniProt P35225); experiment: FACS blocking, biotin-IL-13 on IL-13Ra1/IL-4Ra HEK293 cells; antibody at 0.002 nM
[21] = biological target: his-labeled human IL-13 (immunogen A) (human) (UniProt P35225); experiment: FACS blocking assay: antibody titrated with biotin-labeled immunogen A (20 ng/mL); blocked partner IL-13Ra2 on HEK293 clone 1A1; Alexa 488 streptavidin
[22] = biological target: his-labeled human IL-13R130Q variant (human) (UniProt P35225); experiment: ELISA, IL-13R130Q variant; antibody at 0.021 nM
[23] = biological target: his-labeled human IL-13R130Q variant (human) (UniProt P35225); experiment: ELISA, IL-13R130Q variant; antibody at 0.53 nM
[24] = biological target: his-labeled human IL-13R130Q variant (human) (UniProt P35225); experiment: ELISA, IL-13R130Q variant; antibody at 13.33 nM
[25] = biological target: his-labeled human IL-13R130Q variant (human) (UniProt P35225); experiment: ELISA, IL-13R130Q variant; antibody at 2.67 nM
[26] = biological target: his-labeled human IL-13R130Q variant (human) (UniProt P35225); experiment: ELISA, IL-13R130Q variant; antibody at 66.67 nM
[27] = biological target: his-labeled human IL-13R130Q variant (human) (UniProt P35225); experiment: ELISA, IL-13R130Q variant; antibody at 0.004 nM
[28] = biological target: his-labeled human IL-13R130Q variant (human) (UniProt P35225); experiment: ELISA, IL-13R130Q variant; antibody at 0.11 nM

his-labeled human IL-13R130Q variant (human), sequence (P35225 other isoform, or with tags, fused parts or gaps mutant): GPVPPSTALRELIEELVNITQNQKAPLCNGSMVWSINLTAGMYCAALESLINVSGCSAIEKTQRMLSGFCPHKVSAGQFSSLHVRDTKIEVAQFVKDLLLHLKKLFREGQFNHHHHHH

Kd [1]: < 90 nM | mean fluorescence intensity [2]: 94 | Kd [3]: 1.02 nM | koff [3]: 0.000271 s⁻¹ | kon [3]: 267000 M⁻¹ s⁻¹ | mean fluorescence intensity [4]: 97.5 | mean fluorescence intensity [5]: 27.8 | mean fluorescence intensity [6]: 96.9 | mean fluorescence intensity [7]: 27.3 | mean fluorescence intensity [8]: 83.7 | mean fluorescence intensity [9]: 31 | mean fluorescence intensity [10]: 22.6 | Periostin (pg/mL), MRCS cells + IL-13 5 ng/mL; antibody at 0.0002 nM [11]: 6960 pg/mL | Periostin (pg/mL), MRCS cells + IL-13 5 ng/mL; antibody at 0.001 nM [11]: 6050 pg/mL | Periostin (pg/mL), MRCS cells + IL-13 5 ng/mL; antibody at 0.004 nM [11]: 5010 pg/mL | Periostin (pg/mL), MRCS cells + IL-13 5 ng/mL; antibody at 0.021 nM [11]: 4540 pg/mL | Periostin (pg/mL), MRCS cells + IL-13 5 ng/mL; antibody at 0.11 nM [11]: 4570 pg/mL | Periostin (pg/mL), MRCS cells + IL-13 5 ng/mL; antibody at 0.53 nM [11]: 3660 pg/mL | Periostin (pg/mL), MRCS cells + IL-13 5 ng/mL; antibody at 2.67 nM [11]: 2620 pg/mL | Periostin (pg/mL), MRCS cells + IL-13 5 ng/mL; antibody at 13.3 nM [11]: 1260 pg/mL | TARC (pg/mL), A549 cells + IL-13 + TNFα; antibody at 0.001 nM [11]: 2610 pg/mL | TARC (pg/mL), A549 cells + IL-13 + TNFα; antibody at 0.004 nM [11]: 3030 pg/mL | TARC (pg/mL), A549 cells + IL-13 + TNFα; antibody at 0.021 nM [11]: 2770 pg/mL | TARC (pg/mL), A549 cells + IL-13 + TNFα; antibody at 0.11 nM [11]: 2780 pg/mL | TARC (pg/mL), A549 cells + IL-13 + TNFα; antibody at 0.53 nM [11]: 2800 pg/mL | TARC (pg/mL), A549 cells + IL-13 + TNFα; antibody at 2.67 nM [11]: 2240 pg/mL | TARC (pg/mL), A549 cells + IL-13 + TNFα; antibody at 13.3 nM [11]: 1120 pg/mL | TARC (pg/mL), A549 cells + IL-13 + TNFα; antibody at 66.7 nM [11]: 348 pg/mL | VCAM-1 fluorescence intensity, HUVEC + IL-13 0.5 ng/mL + TNFα; antibody at 0.0002 nM [11]: 368 | VCAM-1 fluorescence intensity, HUVEC + IL-13 0.5 ng/mL + TNFα; antibody at 0.001 nM [11]: 343 | VCAM-1 fluorescence intensity, HUVEC + IL-13 0.5 ng/mL + TNFα; antibody at 0.004 nM [11]: 374 | VCAM-1 fluorescence intensity, HUVEC + IL-13 0.5 ng/mL + TNFα; antibody at 0.021 nM [11]: 403 | VCAM-1 fluorescence intensity, HUVEC + IL-13 0.5 ng/mL + TNFα; antibody at 0.11 nM [11]: 316 | VCAM-1 fluorescence intensity, HUVEC + IL-13 0.5 ng/mL + TNFα; antibody at 0.53 nM [11]: 286 | VCAM-1 fluorescence intensity, HUVEC + IL-13 0.5 ng/mL + TNFα; antibody at 2.67 nM [11]: 272 | VCAM-1 fluorescence intensity, HUVEC + IL-13 0.5 ng/mL + TNFα; antibody at 13.3 nM [11]: 223 | mean fluorescence intensity [12]: 53.3 | mean fluorescence intensity [13]: 20.8 | IC50 (read off the curve) [14]: 1 nM | mean fluorescence intensity [15]: 78.4 | mean fluorescence intensity [16]: 97.6 | mean fluorescence intensity [17]: 98.3 | mean fluorescence intensity [18]: 49.1 | mean fluorescence intensity [19]: 24.6 | mean fluorescence intensity [20]: 96 | IC50 (read off the curve) [21]: 0.7 nM
B1: c70F10A10 (mouse-human chimeric IL-13 antibody) (antibody, V domains shown)
VH: QIQLQQSGAELARPGASVKLSCKASGYTFTSYGISWVKQRDGQGLEWIGEIYPRSGNTDYNEKFKGKATLTADKSSSTAYMELRSLTSEDSAVYFCSSFTTLVPTDYFDYWGQGTTLTVSS
VL: DIMMSQSPSSLAVSVGEKVSMTCKSSQSLLYSSNQKNYLAWYQQKPGQSPKMLIYWASTRETGVPDRFTGSGSGTDFTLTISSVMAEDLAVYYCHQYFTYPRTFGDGTKLEVK

mean fluorescence intensity [2]: 70.8 | mean fluorescence intensity [4]: 76.7 | mean fluorescence intensity [5]: 39.1 | mean fluorescence intensity [6]: 67.6 | mean fluorescence intensity [7]: 24.7 | mean fluorescence intensity [8]: 51.9 | mean fluorescence intensity [9]: 42.3 | mean fluorescence intensity [10]: 20.3 | TARC (pg/mL), A549 cells + IL-13 5 ng/mL + TNFα; antibody at 0.001 nM [11]: 2000 pg/mL | TARC (pg/mL), A549 cells + IL-13 5 ng/mL + TNFα; antibody at 0.004 nM [11]: 1830 pg/mL | TARC (pg/mL), A549 cells + IL-13 5 ng/mL + TNFα; antibody at 0.021 nM [11]: 1600 pg/mL | TARC (pg/mL), A549 cells + IL-13 5 ng/mL + TNFα; antibody at 0.11 nM [11]: 1630 pg/mL | TARC (pg/mL), A549 cells + IL-13 5 ng/mL + TNFα; antibody at 0.5 nM [11]: 1500 pg/mL | TARC (pg/mL), A549 cells + IL-13 5 ng/mL + TNFα; antibody at 2.7 nM [11]: 1140 pg/mL | TARC (pg/mL), A549 cells + IL-13 5 ng/mL + TNFα; antibody at 13.3 nM [11]: 656 pg/mL | TARC (pg/mL), A549 cells + IL-13 5 ng/mL + TNFα; antibody at 66.7 nM [11]: 207 pg/mL | mean fluorescence intensity [12]: 30.7 | mean fluorescence intensity [13]: 19.3 | mean fluorescence intensity [15]: 46.8 | mean fluorescence intensity [16]: 75.6 | mean fluorescence intensity [17]: 73.5 | mean fluorescence intensity [18]: 46 | mean fluorescence intensity [19]: 37.8 | mean fluorescence intensity [20]: 72.5 | IC50 (read off the curve) [21]: 0.1 nM
B2: 70F10A10 (lead antibody, mouse hybridoma) (antibody, V domains shown)
VH: QIQLQQSGAELARPGASVKLSCKASGYTFTSYGISWVKQRDGQGLEWIGEIYPRSGNTDYNEKFKGKATLTADKSSSTAYMELRSLTSEDSAVYFCSSFTTLVPTDYFDYWGQGTTLTVSS
VL: DIMMSQSPSSLAVSVGEKVSMTCKSSQSLLYSSNQKNYLAWYQQKPGQSPKMLIYWASTRETGVPDRFTGSGSGTDFTLTISSVMAEDLAVYYCHQYFTYPRTFGDGTKLEVK

Kd [1]: < 90 nM | OD450 nm [22]: 0.23 | OD450 nm [23]: 2.13 | OD450 nm [24]: 3.23 | Kd [3]: 0.336 nM | koff [3]: 0.000445 s⁻¹ | kon [3]: 1.33e+06 M⁻¹ s⁻¹ | OD450 nm [25]: 2.97 | OD450 nm [26]: 3.31 | OD450 nm [27]: 0.11 | OD450 nm [28]: 0.8
B3: c35H6E1 (mouse-human chimeric IL-13 antibody) (antibody, V domains shown)
VH: QVTLKESGPGILQSSQTLSLTCSFSGFSLSTSNMGVSWIRQPSGKGLEWLAHIYWDDDKRYNPSLESRLTISKDTSRNQVFLKITSVDTADSATYYCARRTNYFSTRDYFDYWGQGTTLTVSS
VL: DIQMTQSPASLSVSVGETVTITCRASENIYSNLVWYQQKQGKSPQLLVYAATKLADGVPSRFSGSGSGTQYSLKINSLQSEDFGSYYCQHFWGFPWTFGGGTKLEIK
